Reference: article PMC4598982, “Impact of Cell-surface Antigen Expression on Target Engagement and Function of an Epidermal Growth Factor Receptor × c-MET Bispecific Antibody*” (The Journal of Biological Chemistry, 2015)

Target: the molecule itself
Experiment: split reporter (BiFC, NanoBiT); PathHunter enzyme fragment complementation in the c-MET homodimer U-2 OS cell line; recombinant human HGF serially diluted; 6 h at room temperature; lower levels with bivalent c-MET mAb, even lower levels with JNJ-61186372 and monovalent c-MET BsAbs

B1: c-MET(1–960) C-terminally fused to a complementary inactive fragment of β-galactosidase (receptor, UniProt P08581 25-960, looked up)
chain: ECKEALAKSEMNVNMKYQLPNFTAETPIQNVILHEHHIFLGATNYIYVLNEEDLQKVAEYKTGPVLEHPDCFPCQDCSSKANLSGGVWKDNINMALVVDTYYDDQLISCGSVNRGTCQRHVFPHNHTADIQSEVHCIFSPQIEEPSQCPDCVVSALGAKVLSSVKDRFINFFVGNTINSSYFPDHPLHSISVRRLKETKDGFMFLTDQSYIDVLPEFRDSYPIKYVHAFESNNFIYFLTVQRETLDAQTFHTRIIRFCSINSGLHSYMEMPLECILTEKRKKRSTKKEVFNILQAAYVSKPGAQLARQIGASLNDDILFGVFAQSKPDSAEPMDRSAMCAFPIKYVNDFFNKIVNKNNVRCLQHFYGPNHEHCFNRTLLRNSSGCEARRDEYRTEFTTALQRVDLFMGQFSEVLLTSISTFIKGDLTIANLGTSEGRFMQVVVSRSGPSTPHVNFLLDSHPVSPEVIVEHTLNQNGYTLVITGKKITKIPLNGLGCRHFQSCSQCLSAPPFVQCGWCHDKCVRSEECLSGTWTQQICLPAIYKVFPNSAPLEGGTRLTICGWDFGFRRNNKFDLKKTRVLLGNESCTLTLSESTMNTLKCTVGPAMNKHFNMSIIISNGHGTTQYSTFSYVDPVITSISPKYGPMAGGTLLTLTGNYLNSGNSRHISIGGKTCTLKSVSNSILECYTPAQTISTEFAVKLKIDLANRETSIFSYREDPIVYEIHPTKSFISGGSTITGVGKNLNSVSVPRMVINVHEAGRNFTVACQHRSNSEIICCTTPSLQQLNLQLPLKTKAFFMLDGILSKYFDLIYVHNPVFKPFEKPVMISMGNENVLEIKGNDIDPEAVKGEVLKVGNKSCENIHLHSEAVLCTVPNDLLKLNSELNIEWKQAISSTVLGKVIVQPDQNFTGLIAGVVSISTALLLLLGFFLWLKKRKQ
notes: signal peptide in the construct; membrane localisation of the construct was checked by flow cytometry; In the homodimer cell line two copies carry the two complementary β-gal fragments; also called hepatocyte growth factor receptor; HGF receptor; source: U-2 OS cells, stably transfected, on cells
EC50 of HGF for c-MET homodimerization: 3.21 nM
